Measured values: US20250171562A1 (ALK ABELL, published 2025)

Biological target: T1, recombinant human IgE (human, UniProt P01854-1 1-428)
T1 construct: made in-house (ALK); preloaded on immobilised FcεRIα in the displacement ELISA
Test: IgE-FcεRIα displacement ELISA
In short: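 Streptavidin-coated plates carried site-specifically biotinylated recombinant human FcεRIα, loaded with recombinant human IgE at 13 ng/ml. sdAbs in a pM–μM series were added for 1 h, and displaced IgE was washed off. Percent displacement was the signal reduction versus the no-sdAb control, giving EC50 and maximal effect.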

T1 sequence (P01854 other isoform, or with tags, fused parts or gaps): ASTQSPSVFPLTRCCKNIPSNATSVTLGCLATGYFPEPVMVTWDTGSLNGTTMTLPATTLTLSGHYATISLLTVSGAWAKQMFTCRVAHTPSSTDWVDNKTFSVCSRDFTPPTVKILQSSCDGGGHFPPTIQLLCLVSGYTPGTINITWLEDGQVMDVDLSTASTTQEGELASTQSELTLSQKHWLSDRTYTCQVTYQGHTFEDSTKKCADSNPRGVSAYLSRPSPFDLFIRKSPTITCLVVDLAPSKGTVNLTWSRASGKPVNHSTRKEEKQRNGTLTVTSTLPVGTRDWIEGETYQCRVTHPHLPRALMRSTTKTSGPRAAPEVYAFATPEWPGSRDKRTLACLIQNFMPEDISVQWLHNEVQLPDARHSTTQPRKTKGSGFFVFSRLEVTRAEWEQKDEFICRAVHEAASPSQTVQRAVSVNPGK

| EC50 [nM] | Max effect [%] | Binder |
| --- | --- | --- |
| 1000 | 50 | CIgG4E2A1(G4S)1 (Fc fusion) chain 1: GPPCPPCPAPEFLGGPSVFLFPPKPKDTLMISRTPEVTCVVVDVSQEDPEVQFNWYVDGVEVHNAKTKPREEQFNSTYRVVSVLTVLHQDWLNGKEYKCKVSNKGLPSSIEKTISKAKGQPREPQVYTLPPCQEEMTKNQVSLWCLVKGFYPSDIAVEWESNGQPENNYKTTPPVLDSDGSFFLYSRLTVDKSRWQEGNVFSCSVMHEALHNHYTQKSLSLSLGKGGGGSDVQLQESGGGLVQAGGSLRLSCAASGRTISRYAVGWFRRPPAKEREFIGINWSGGSTTYADSAEGRFIISRDNAKNTVYLQMNSLKPEDTAVYYCAVPSVLVQGGISNPSQYDYWGQGTQVTVS chain 2: GPPCPPCPAPEFLGGPSVFLFPPKPKDTLMISRTPEVTCVVVDVSQEDPEVQFNWYVDGVEVHNAKTKPREEQFNSTYRVVSVLTVLHQDWLNGKEYKCKVSNKGLPSSIEKTISKAKGQPREPQVCTLPPSQEEMTKNQVSLSCAVKGFYPSDIAVEWESNGQPENNYKTTPPVLDSDGSFFLVSRLTVDKSRWQEGNVFSCSVMHEALHNHYTQKSLSLSLGKGGGGSEVQLLESGGGLVQPGGSLRLSCAASGFTFGNYDMAWVRQAPGKRPEWVSSIDTGGDITHYADSVKGRFTISRDNAKNTLYLQMNSLRPEDTAVYWCATDEEYALGPNEFDYYGQGTLVTVSS |
| 130 | 85 | CIgG4E3A1(G4S)1 (Fc fusion) chain 1: GPPCPPCPAPEFLGGPSVFLFPPKPKDTLMISRTPEVTCVVVDVSQEDPEVQFNWYVDGVEVHNAKTKPREEQFNSTYRVVSVLTVLHQDWLNGKEYKCKVSNKGLPSSIEKTISKAKGQPREPQVYTLPPCQEEMTKNQVSLWCLVKGFYPSDIAVEWESNGQPENNYKTTPPVLDSDGSFFLYSRLTVDKSRWQEGNVFSCSVMHEALHNHYTQKSLSLSLGKGGGGSDVQLQESGGGLVQAGGSLRLACAASGRTLSSYVVSWFRQAPGKERKFVAAITWSGLSTTYLDSVQGRFTISRDNTKDTVYLQMNSLKPQDTAIYYCAAGPNIPSILRTRESEYAYWGQGTQVTVS chain 2: GPPCPPCPAPEFLGGPSVFLFPPKPKDTLMISRTPEVTCVVVDVSQEDPEVQFNWYVDGVEVHNAKTKPREEQFNSTYRVVSVLTVLHQDWLNGKEYKCKVSNKGLPSSIEKTISKAKGQPREPQVCTLPPSQEEMTKNQVSLSCAVKGFYPSDIAVEWESNGQPENNYKTTPPVLDSDGSFFLVSRLTVDKSRWQEGNVFSCSVMHEALHNHYTQKSLSLSLGKGGGGSEVQLLESGGGLVQPGGSLRLSCAASGFTFGNYDMAWVRQAPGKRPEWVSSIDTGGDITHYADSVKGRFTISRDNAKNTLYLQMNSLRPEDTAVYWCATDEEYALGPNEFDYYGQGTLVTVSS |
| 410 | 65 | CIgG4E2A1(G4S)2 (Fc fusion) chain 1: GPPCPPCPAPEFLGGPSVFLFPPKPKDTLMISRTPEVTCVVVDVSQEDPEVQFNWYVDGVEVHNAKTKPREEQFNSTYRVVSVLTVLHQDWLNGKEYKCKVSNKGLPSSIEKTISKAKGQPREPQVYTLPPCQEEMTKNQVSLWCLVKGFYPSDIAVEWESNGQPENNYKTTPPVLDSDGSFFLYSRLTVDKSRWQEGNVFSCSVMHEALHNHYTQKSLSLSLGKGGGGSGGGGSDVQLQESGGGLVQAGGSLRLSCAASGRTISRYAVGWFRRPPAKEREFIGINWSGGSTTYADSAEGRFIISRDNAKNTVYLQMNSLKPEDTAVYYCAVPSVLVQGGISNPSQYDYWGQGTQVTVS chain 2: GPPCPPCPAPEFLGGPSVFLFPPKPKDTLMISRTPEVTCVVVDVSQEDPEVQFNWYVDGVEVHNAKTKPREEQFNSTYRVVSVLTVLHQDWLNGKEYKCKVSNKGLPSSIEKTISKAKGQPREPQVCTLPPSQEEMTKNQVSLSCAVKGFYPSDIAVEWESNGQPENNYKTTPPVLDSDGSFFLVSRLTVDKSRWQEGNVFSCSVMHEALHNHYTQKSLSLSLGKGGGGSGGGGSEVQLLESGGGLVQPGGSLRLSCAASGFTFGNYDMAWVRQAPGKRPEWVSSIDTGGDITHYADSVKGRFTISRDNAKNTLYLQMNSLRPEDTAVYWCATDEEYALGPNEFDYYGQGTLVTVSS |
| 160 | 75 | CIgG4E2A1(G4S)3 (Fc fusion) chain 1: GPPCPPCPAPEFLGGPSVFLFPPKPKDTLMISRTPEVTCVVVDVSQEDPEVQFNWYVDGVEVHNAKTKPREEQFNSTYRVVSVLTVLHQDWLNGKEYKCKVSNKGLPSSIEKTISKAKGQPREPQVYTLPPCQEEMTKNQVSLWCLVKGFYPSDIAVEWESNGQPENNYKTTPPVLDSDGSFFLYSRLTVDKSRWQEGNVFSCSVMHEALHNHYTQKSLSLSLGKGGGGSGGGGSGGGGSDVQLQESGGGLVQAGGSLRLSCAASGRTISRYAVGWFRRPPAKEREFIGINWSGGSTTYADSAEGRFIISRDNAKNTVYLQMNSLKPEDTAVYYCAVPSVLVQGGISNPSQYDYWGQGTQVTVS chain 2: GPPCPPCPAPEFLGGPSVFLFPPKPKDTLMISRTPEVTCVVVDVSQEDPEVQFNWYVDGVEVHNAKTKPREEQFNSTYRVVSVLTVLHQDWLNGKEYKCKVSNKGLPSSIEKTISKAKGQPREPQVCTLPPSQEEMTKNQVSLSCAVKGFYPSDIAVEWESNGQPENNYKTTPPVLDSDGSFFLVSRLTVDKSRWQEGNVFSCSVMHEALHNHYTQKSLSLSLGKGGGGSGGGGSGGGGSEVQLLESGGGLVQPGGSLRLSCAASGFTFGNYDMAWVRQAPGKRPEWVSSIDTGGDITHYADSVKGRFTISRDNAKNTLYLQMNSLRPEDTAVYWCATDEEYALGPNEFDYYGQGTLVTVSS |
| – | 25 | CIgG4E2A1(RS) (Fc fusion) chain 1: GPPCPPCPAPEFLGGPSVFLFPPKPKDTLMISRTPEVTCVVVDVSQEDPEVQFNWYVDGVEVHNAKTKPREEQFNSTYRVVSVLTVLHQDWLNGKEYKCKVSNKGLPSSIEKTISKAKGQPREPQVYTLPPCQEEMTKNQVSLWCLVKGFYPSDIAVEWESNGQPENNYKTTPPVLDSDGSFFLYSRLTVDKSRWQEGNVFSCSVMHEALHNHYTQKSLSLSLGKRSDVQLQESGGGLVQAGGSLRLSCAASGRTISRYAVGWFRRPPAKEREFIGINWSGGSTTYADSAEGRFIISRDNAKNTVYLQMNSLKPEDTAVYYCAVPSVLVQGGISNPSQYDYWGQGTQVTVS chain 2: GPPCPPCPAPEFLGGPSVFLFPPKPKDTLMISRTPEVTCVVVDVSQEDPEVQFNWYVDGVEVHNAKTKPREEQFNSTYRVVSVLTVLHQDWLNGKEYKCKVSNKGLPSSIEKTISKAKGQPREPQVCTLPPSQEEMTKNQVSLSCAVKGFYPSDIAVEWESNGQPENNYKTTPPVLDSDGSFFLVSRLTVDKSRWQEGNVFSCSVMHEALHNHYTQKSLSLSLGKRSEVQLLESGGGLVQPGGSLRLSCAASGFTFGNYDMAWVRQAPGKRPEWVSSIDTGGDITHYADSVKGRFTISRDNAKNTLYLQMNSLRPEDTAVYWCATDEEYALGPNEFDYYGQGTLVTVSS |
| – | 30 | CIgG4E3A1(RS) (Fc fusion) chain 1: GPPCPPCPAPEFLGGPSVFLFPPKPKDTLMISRTPEVTCVVVDVSQEDPEVQFNWYVDGVEVHNAKTKPREEQFNSTYRVVSVLTVLHQDWLNGKEYKCKVSNKGLPSSIEKTISKAKGQPREPQVYTLPPCQEEMTKNQVSLWCLVKGFYPSDIAVEWESNGQPENNYKTTPPVLDSDGSFFLYSRLTVDKSRWQEGNVFSCSVMHEALHNHYTQKSLSLSLGKRSDVQLQESGGGLVQAGGSLRLACAASGRTLSSYVVSWFRQAPGKERKFVAAITWSGLSTTYLDSVQGRFTISRDNTKDTVYLQMNSLKPQDTAIYYCAAGPNIPSILRTRESEYAYWGQGTQVTVS chain 2: GPPCPPCPAPEFLGGPSVFLFPPKPKDTLMISRTPEVTCVVVDVSQEDPEVQFNWYVDGVEVHNAKTKPREEQFNSTYRVVSVLTVLHQDWLNGKEYKCKVSNKGLPSSIEKTISKAKGQPREPQVCTLPPSQEEMTKNQVSLSCAVKGFYPSDIAVEWESNGQPENNYKTTPPVLDSDGSFFLVSRLTVDKSRWQEGNVFSCSVMHEALHNHYTQKSLSLSLGKRSEVQLLESGGGLVQPGGSLRLSCAASGFTFGNYDMAWVRQAPGKRPEWVSSIDTGGDITHYADSVKGRFTISRDNAKNTLYLQMNSLRPEDTAVYWCATDEEYALGPNEFDYYGQGTLVTVSS |
